Positions count from the first letter of the chain named. In names and notes the source's numbering stands.
B1: Am2136 WT (Akkermansia muciniphila ATCC BAA-835) (protein)
chain: QDAKQIADSLSIPPVKAGAKQLPMPSVSGAQIKLLGADYEQLVNSKGKIAPVISDTPVNVSFKVTKDGKEAVSKDYEIMLQAPQAAQGNPKPRIIPEILQWKGGQGEYKLGNTVTIACPDKELGKLFAADMEDVLGKKVKLVAPGAKADISLSLLKGGNLGREGYRLQIARDGVRLGAAAPTGLFWGTRTLLQMLRQTPGSVPCGTAVDFPRYQLRGFMLDVARTPYPLSYLKDVIRTMAWYKMNDLHLVINNNYIFHEHYVDNGHDPFKESYAAFRLESKMKGKDGTPLTARDLFYTKKEFADLVSYARKYGVNIVPEFDTPGHALSFTRLRPDLIYKGPMNHEKRRCEMLDAANPETIDLVSKVFDEYMLKDPKLGRPVFADCGVVHVGADEFYGDKEDYRHFANAVLTHALKRGYTPRIWGSLSAKPGKTPVVSKGVQMNLWSTGWMKAWEAVNQGYDVINTNDGALYIVPFAGYYRMDRNHKGLYNNWIPNRIGNETLPSGHPQLLGGTFAVWNDETDIMHTGYAPYDIWGIISGSMDVLSQKLWGTAKAPDTFEQHRELVSSIGNAPRTNPLHKWKDSQPLTVKPSSLPQKLDKPALGPNYRLTMELELTAAPEGKEQVLLAAPEGELLAVMKDGTVGFRRDDSLEFSFGAKLPVGKKVKVEIVGEPEKTSLLLDGEPAGTAVLKNFSDKSKDFSDKFKHRPKVHRSTFILPLKELGSSFQGKVFHMNVQPL
B2: D57A+E59A+Q60A (Akkermansia muciniphila ATCC BAA-835; D57A/E59A/Q60A) (protein)
chain: B1 chain with D38A, E40A, Q41A
notes: residues Q20-L756 without signal peptide, N-terminal 6xHis-tag
B3: T545A+G546A (Akkermansia muciniphila ATCC BAA-835; G546A/T545A) (protein)
chain: B1 chain with T526A, G527A
notes: as for B2
B4: Δ D717-K727 (Akkermansia muciniphila ATCC BAA-835; DEL717-727) (protein)
chain: QDAKQIADSLSIPPVKAGAKQLPMPSVSGAQIKLLGADYEQLVNSKGKIAPVISDTPVNVSFKVTKDGKEAVSKDYEIMLQAPQAAQGNPKPRIIPEILQWKGGQGEYKLGNTVTIACPDKELGKLFAADMEDVLGKKVKLVAPGAKADISLSLLKGGNLGREGYRLQIARDGVRLGAAAPTGLFWGTRTLLQMLRQTPGSVPCGTAVDFPRYQLRGFMLDVARTPYPLSYLKDVIRTMAWYKMNDLHLVINNNYIFHEHYVDNGHDPFKESYAAFRLESKMKGKDGTPLTARDLFYTKKEFADLVSYARKYGVNIVPEFDTPGHALSFTRLRPDLIYKGPMNHEKRRCEMLDAANPETIDLVSKVFDEYMLKDPKLGRPVFADCGVVHVGADEFYGDKEDYRHFANAVLTHALKRGYTPRIWGSLSAKPGKTPVVSKGVQMNLWSTGWMKAWEAVNQGYDVINTNDGALYIVPFAGYYRMDRNHKGLYNNWIPNRIGNETLPSGHPQLLGGTFAVWNDETDIMHTGYAPYDIWGIISGSMDVLSQKLWGTAKAPDTFEQHRELVSSIGNAPRTNPLHKWKDSQPLTVKPSSLPQKLDKPALGPNYRLTMELELTAAPEGKEQVLLAAPEGELLAVMKDGTVGFRRDDSLEFSFGAKLPVGKKVKVEIVGEPEKTSLLLDGEPAGTAVLKNFSDKSKVHRSTFILPLKELGSSFQGKVFHMNVQPL
notes: residues Q20-L756 without signal peptide, N-terminal 6xHis-tag; loop D717-K727 deleted
B5: Y415A (Akkermansia muciniphila ATCC BAA-835; Y415A) (protein)
chain: B1 chain with Y396A
notes: as for B2
B6: Y550A (Akkermansia muciniphila ATCC BAA-835; Y550A) (protein)
chain: B1 chain with Y531A
B7: E649A (Akkermansia muciniphila ATCC BAA-835; E649A) (protein)
chain: B1 chain with E630A
B8: R256A (Akkermansia muciniphila ATCC BAA-835; R256A) (protein)
chain: B1 chain with R237A
B9: Y327F+Y331F (Akkermansia muciniphila ATCC BAA-835; Y327F/Y331F) (protein)
chain: B1 chain with Y308F, Y312F

Tests used:
Am2136 WT [1] = biological target: T1, Am2136 WT (Akkermansia muciniphila, UniProt B2UPR7); assay: Enzyme activity assay (pNP-β-GlcNAc hydrolysis) regulated by nucleotides; assay type: biochemical; settings: WT; 1 mM nucleotide; substrate pNP-β-GlcNAc; 37°C
T1 construct: The coding region (residue Q20-L756) of Am2136 without signal peptide was based on UniProt; 6XHis (N); made in house; host or cells: E. coli BL21 (DE3)

Am2136 WT [2] = biological target: T1, Am2136 WT; assay: Nucleotide binding affinity by intrinsic fluorescence; settings: Am2136 WT; fluorescence ex 286 nm/em 336 nm
Procedure: The nucleotide binding ability was determined on Fluorescence Spectrometer Duetta (HORIBA) by measuring the change of peak intensity. The fluorescence was excited at 286 nm and emitted at 336 nm. And the measurement was processed under 400 V voltage with 2.5 nm excitation slit and 5 nm emission slit. […] The sample was incubated at 4°C for 5 min before testing.

[3] = substrate: CC(=O)N[C@H]1[C@H](Oc2ccc([N+](=O)[O-])cc2)O[C@H](CO)[C@@H](O)[C@@H]1O; assay: purified protein, by the assay type; settings: pH 8.0
[4] = substrate: CC(=O)N[C@H]1[C@H](Oc2ccc([N+](=O)[O-])cc2)O[C@H](CO)[C@@H](O)[C@@H]1O; assay: Release of 4-nitrophenolate from pNP-β-GlcNAc (0.125-4 mM) followed at 405 nm for 5 min with 2 μM enzyme in 25 mM Tris pH 8.0, 150 mM NaCl at 37 °C, no nucleotide.; assay type: biochemical
From the text: All experiments were repeated three times.

Molecule	Vmax (Am2136 WT [1])	Kd (Am2136 WT [2])	Km ([3]; 37.0 °C)	also measured
Nc1ncnc2c1ncn2[C@@H]1O[C@H](COP(=O)(O)OP(=O)(O)O)[C@@H](O)[C@H]1O [ADP]	422 ± 6 µmol/min	255 ± 4.98 µM		
Nc1ncnc2c1ncn2[C@@H]1O[C@H](COP(=O)(O)OP(=O)(O)OP(=O)(O)O)[C@@H](O)[C@H]1O [ATP]	442 ± 9 µmol/min	245 ± 5.99 µM		
Nc1ccn([C@@H]2O[C@H](COP(=O)(O)OP(=O)(O)O)[C@@H](O)[C@H]2O)c(=O)n1 [CDP]	435 ± 6 µmol/min	157 ± 3.89 µM		
Nc1ccn([C@@H]2O[C@H](COP(=O)(O)OP(=O)(O)OP(=O)(O)O)[C@@H](O)[C@H]2O)c(=O)n1 [CTP]	436 ± 7 µmol/min	167 ± 5.91 µM		
Nc1nc2c(ncn2[C@@H]2O[C@H](COP(=O)(O)OP(=O)(O)OP(=O)(O)O)[C@@H](O)[C@H]2O)c(=O)[nH]1 [GTP]	449 ± 7 µmol/min	123 ± 3.76 µM		
O=c1ccn([C@@H]2O[C@H](COP(=O)(O)OP(=O)(O)O)[C@@H](O)[C@H]2O)c(=O)[nH]1 [UDP]	429 ± 9 µmol/min	179 ± 7.71 µM		
O=c1ccn([C@@H]2O[C@H](COP(=O)(O)OP(=O)(O)OP(=O)(O)O)[C@@H](O)[C@H]2O)c(=O)[nH]1 [UTP]	439 ± 7 µmol/min	199 ± 3.66 µM		
B1			1460 ± 50 µM	Km [3]: 1530 ± 80 µM
B2				Km [4]: 1410 ± 60 µM; Vmax [4]: 432 µmol/min; kcat/Km [4]: 153000 ± 3000 M⁻¹ s⁻¹
B3				Km [4]: 3660 ± 690 µM; Vmax [4]: 264 µmol/min; kcat/Km [4]: 36000 ± 5000 M⁻¹ s⁻¹
B4				Km [4]: 6560 ± 410 µM; Vmax [4]: 144 µmol/min; kcat/Km [4]: 11000 ± 1000 M⁻¹ s⁻¹
B5				Km [4]: 2320 ± 80 µM; Vmax [4]: 399 µmol/min; kcat/Km [4]: 86000 ± 1000 M⁻¹ s⁻¹
B6			1520 ± 40 µM	
B7			1450 ± 90 µM	
B8			1490 ± 60 µM	
B9			1420 ± 60 µM	
